Blank lines part the entries; values can stand above or below the substance they belong to.
What was measured:
[1] = molecular target: Rab6a GTPase (human (endogenous in VA-13, HepG2-derived)) (UniProt P20340); experiment: proximity ligation; Duolink in situ PLA in control VA-13 cells and hepatocytes from control rats; mouse anti-giantin + rabbit anti-Rab6a, or mouse anti-Rab6a + rabbit anti-NMIIA-P-S1943; cells with more than one red spot counted
[2] = molecular target: Rab6a GTPase (rat hepatocytes) (rat (endogenous in primary hepatocytes)) (UniProt Q9WVB1); experiment: as above
Chain of Rab6a GTPase (rat hepatocytes) (rat (endogenous in primary hepatocytes)) (Q9WVB1 whole entry): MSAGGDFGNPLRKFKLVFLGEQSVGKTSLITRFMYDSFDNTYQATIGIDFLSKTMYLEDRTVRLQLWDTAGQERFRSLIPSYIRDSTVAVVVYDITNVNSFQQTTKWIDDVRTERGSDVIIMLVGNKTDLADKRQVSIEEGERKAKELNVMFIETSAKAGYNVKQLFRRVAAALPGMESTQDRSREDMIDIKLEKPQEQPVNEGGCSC

[3] = molecular target: Rab6a GTPase (rat hepatocytes) (rat (endogenous in primary hepatocytes)) (UniProt Q9WVB1); experiment: proximity ligation; Duolink in situ PLA in VA-13 cells treated with 35 mM EtOH for 72 h and hepatocytes from EtOH-fed rats; mouse anti-Rab6a + rabbit anti-NMIIA-P-S1943; cells with more than one red spot counted

Chain of non-muscle Myosin IIA heavy chain phosphorylated at S1943 (rat hepatocytes) (Q62812 2-1961): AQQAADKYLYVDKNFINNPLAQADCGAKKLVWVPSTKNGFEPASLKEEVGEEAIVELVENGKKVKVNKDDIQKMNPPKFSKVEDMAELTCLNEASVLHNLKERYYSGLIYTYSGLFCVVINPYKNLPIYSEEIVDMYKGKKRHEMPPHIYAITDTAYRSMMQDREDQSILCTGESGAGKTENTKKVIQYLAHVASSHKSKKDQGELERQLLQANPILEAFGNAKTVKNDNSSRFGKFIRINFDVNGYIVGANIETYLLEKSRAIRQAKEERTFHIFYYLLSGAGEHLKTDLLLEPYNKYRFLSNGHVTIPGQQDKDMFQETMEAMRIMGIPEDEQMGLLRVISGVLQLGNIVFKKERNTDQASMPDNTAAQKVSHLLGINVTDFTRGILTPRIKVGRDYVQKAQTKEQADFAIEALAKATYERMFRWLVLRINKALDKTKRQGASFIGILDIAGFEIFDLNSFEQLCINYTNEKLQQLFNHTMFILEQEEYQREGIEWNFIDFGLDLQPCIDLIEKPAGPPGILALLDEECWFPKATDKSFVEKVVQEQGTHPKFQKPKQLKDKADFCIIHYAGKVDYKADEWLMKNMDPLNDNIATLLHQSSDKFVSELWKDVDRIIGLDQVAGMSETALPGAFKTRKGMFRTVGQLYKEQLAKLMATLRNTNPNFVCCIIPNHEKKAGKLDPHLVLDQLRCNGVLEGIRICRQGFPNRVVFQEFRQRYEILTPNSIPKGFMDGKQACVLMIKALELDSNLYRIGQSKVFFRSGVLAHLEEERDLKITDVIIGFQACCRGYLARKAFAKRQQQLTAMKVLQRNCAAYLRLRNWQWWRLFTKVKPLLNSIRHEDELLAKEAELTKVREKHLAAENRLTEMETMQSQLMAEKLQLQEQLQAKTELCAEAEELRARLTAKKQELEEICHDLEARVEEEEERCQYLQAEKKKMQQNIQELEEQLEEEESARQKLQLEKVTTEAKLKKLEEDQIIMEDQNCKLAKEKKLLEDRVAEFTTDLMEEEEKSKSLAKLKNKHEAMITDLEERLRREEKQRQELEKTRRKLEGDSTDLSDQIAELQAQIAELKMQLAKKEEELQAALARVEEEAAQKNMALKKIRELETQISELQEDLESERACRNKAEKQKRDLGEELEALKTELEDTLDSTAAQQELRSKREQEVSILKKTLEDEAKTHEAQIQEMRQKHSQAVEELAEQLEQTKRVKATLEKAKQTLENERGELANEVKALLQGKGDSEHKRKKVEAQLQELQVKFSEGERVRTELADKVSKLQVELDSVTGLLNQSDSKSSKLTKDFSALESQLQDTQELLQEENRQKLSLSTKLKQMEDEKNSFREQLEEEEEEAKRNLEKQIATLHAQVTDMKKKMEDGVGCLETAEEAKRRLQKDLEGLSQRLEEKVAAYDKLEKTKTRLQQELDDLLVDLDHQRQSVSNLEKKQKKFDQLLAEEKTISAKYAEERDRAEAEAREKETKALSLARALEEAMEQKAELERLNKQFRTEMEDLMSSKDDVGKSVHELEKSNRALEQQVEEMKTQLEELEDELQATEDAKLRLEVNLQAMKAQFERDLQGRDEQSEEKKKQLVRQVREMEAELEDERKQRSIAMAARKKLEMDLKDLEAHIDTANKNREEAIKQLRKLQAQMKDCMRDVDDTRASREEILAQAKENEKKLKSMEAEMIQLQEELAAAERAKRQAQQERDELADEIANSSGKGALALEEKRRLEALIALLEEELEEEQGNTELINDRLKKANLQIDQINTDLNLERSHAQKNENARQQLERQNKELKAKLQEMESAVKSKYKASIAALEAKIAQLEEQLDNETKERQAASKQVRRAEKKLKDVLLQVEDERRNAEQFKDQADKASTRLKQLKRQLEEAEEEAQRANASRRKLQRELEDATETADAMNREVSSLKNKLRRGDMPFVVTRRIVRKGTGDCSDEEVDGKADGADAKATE
Chain of Rab6a GTPase (human (endogenous in VA-13, HepG2-derived)) (P20340 whole entry): as the sequence (Q9WVB1 whole entry) above, with A3T, N202S counted along it

- percent of cells with more than one PLA spot [1]: 78%
Substance: giantin, Q14789 1-3259

- percent of cells with more than one PLA spot [2]: 83%
Substance: giantin (rat hepatocytes) (natural protein)

Substance: non-muscle Myosin IIA heavy chain phosphorylated at S1943 (rat hepatocytes) (from UniProt Q62812 1-1961) (natural protein)
- percent of cells with PLA-positive puncta [3]: 86%
